Reference: IntAct's records for PubMed 19737520

B1: Trigger factor (Thermotoga maritima (strain ATCC 43589 / MSB8 / DSM 3109 / JCM 10099)), Q9WZF8 (parent)
chain: MEVKELERDKNRVVLEYVFGAEEIAQAEDKAVRYLNQRVEIPGFRKGRIPKNVLKMKLGEEFQEYTLDFLMDLIPDTLKDRKLILSPIVTERELKDVTARVVVEVHEEPEVRIGDISKIEVEKVDEEKVLEKYVERRIEDLRESHALLEPKEGPAEAGDLVRVNMEVYNEEGKKLTSREYEYVISEDEDRPFVKDLVGKKKGDVVEIEREYEGKKYTYKLEVEEVYKRTLPEIGDELAKSVNNEFETLEQLKESLKKEGKEIYDVEMKESMREQLLEKLPEIVEIEISDRTLEILVNEAINRLKREGRYEQIVSSYESEEKFREELKERILDDIKRDRVIEVLAQEKGISVNDEELEKEAEELAPFWGISPDRAKSLVKARQDLREELRWAILKRKVLDLLLQEVKVKVVEPKGEGDDSEGKEDN
partner: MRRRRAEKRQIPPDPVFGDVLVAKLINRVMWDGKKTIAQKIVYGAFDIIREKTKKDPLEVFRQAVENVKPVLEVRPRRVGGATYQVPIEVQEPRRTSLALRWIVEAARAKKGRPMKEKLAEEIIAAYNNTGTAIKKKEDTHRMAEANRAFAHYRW

Variants of: B1
Settings: with rs7_thema rpsG

effect of a mutation on the interaction	Variant
disrupting interaction	MEVKELERDKNRVVLEYVFGAEEIAQAEDKAVRYLNQRVEIPGFRKGRIPKNVLKMKLGEEFQEYTLDFLMDLIPDTLKDRKLILSPIVTERELKDVTARVVVEVHEEPEVRIGDISKIEVEKVDEEKVLEKYVERRIEDLRESHALLEPKEGPAEAGDLVRVNMEVYNEEGKKLTSREYEYVISEDEDRPFVKDLVGKKKGDVVEIEREYEGKKYTYKLEVEEVYKRTLPEIGDELAKSVNNEFETLEQLKESLKKEGKEIYDVRMKRSMRRQLLEKLPEIVEIEISDRTLEILVNEAINRLKREGRYEQIVSSYESEEKFREELKERILDDIKRDRVIEVLAQEKGISVNDEELEKEAEELAPFWGISPDRAKSLVKARQDLREELRWAILKRKVLDLLLQEVKVKVVEPKGEGDDSEGKEDN [E266R;E269R;E273R]
